One test concerns mt tRNA^Trp. The test is described as follows: Assay of aminoacylation activity using 14C tryptophan. The settings on record: 30° C., 0-16 minutes; mtWRS with mt tRNA^Trp; FIG. 11. Format: biochemical, yeast. How it is done:
In order to assay enzyme activity, aminoacylation was carried out using ^14C tryptophan. The reaction solution having the composition shown below was heated at 30° C. for about 5 minutes while the enzyme was removed therefrom. Thereafter, the enzyme was added, the mixture was incubated at 30° C., the mixture was spotted on a filter wetted with 5% TCA 0, 1, 4, 9, and 16 minutes after incubation, and the filter was then soaked in 5% TCA. After spotting of the reaction solution at each time point was completed, 5% TCA was discarded, and fresh 5% TCA was added to the beaker, followed by shaking for 10 minutes. This procedure was repeated twice, 100% ethanol was added, and the mixture was lightly shaken, followed by dehydration under an electric heat. Thereafter, the resultant was soaked in a scintillator, and the samples were counted using a liquid scintillation counter.
The reaction solution for aminoacylation (50 μl) was prepared by diluting 10 μl of 5×AAM (aminoacylation mixture), 0.05 A260 units of mt tRNA^Trp, an adequate amount of enzyme (depending on the concentration), and 2 μl of ^14C tryptophan in dH2O.
The 5×AAM (aminoacylation mixture) comprised 500 mM Tris-HCl (pH 7.6), 50 mM MgCl2, 200 mM KCl, and 20 mM ATP.
A scintillator (1 liter) was prepared by diluting 4 g of Dotite DPO and 0.1 g of Dotite POPOP in toluene.

Test [1] has as its system tRNA^Tyr precursor having on the 5′ end an additional sequence. The test is described as follows: Confirmation of C5 protein and M1 RNA (RNase P) cleavage activity. The settings on record: 150 pmol tRNA^Tyr precursor; 7M urea denatured polyacrylamide gel, methylene blue; FIG. 7. The test is classed as biochemical. How it is done:
In order to assay enzyme activity, 150 pmol of the tRNA^Tyr precursor having on the 5′ end an additional sequence was subjected to the reaction with 30 pmol of C5 proteins and […] of M1 RNA. The reaction buffer comprises 50 mM Tris-HCl (pH 7.4), 10 mM MgCl2, and 100 mM NH4Cl. The reaction solution was separated using a 7M urea-containing denatured polyacrylamide gel, and nucleic acid components were stained with methylene blue.

B1: mtWRS: yeast (Saccharomyces cerevisiae) mitochondrial tryptophanyl tRNA synthetase, SEQ ID NO: 2, His-tagged, expressed from pYC2WRS (protein)
chain: ISTVQRADFKLNSEALHSNATVFSMIQPTGCFHLGNYLGATRVWTDLCELKQPGQELIFGVADLHAITVPKPDGEMFRKFRHEAVASILAVGVDPEKASVIYQSAIPQHSELHWLLSTLASMGLLNRMTQWKSKSNIKQSTNGDYLVNDSDVGKVRLGLFSYPVLQAADILLYKSTHVPVGDDQSQHLELTRHLAEKFNKMYKKNFFPKPVTMLAQTKKVLSLSTPEKKMSKSDPNHDSVIFLNDEPKAIQKKIRKALTDSISDRFYYDPVERPGVSNLINIVSGIQRKSIEDVVEDVSRFNNYRDFKDYVSEVIIEELKGPRTEFEKYINEPTYLHSVVESGMRKAREKAAKNLADIHKIMGF
modifications: His tag
As for B1, in the test on mt tRNA^Trp, the “capacity of tRNA for accepting 14C-tryptophan” value is reported as “acceptance of tryptophan was observed”.

B2: C5 protein: protein component of E. coli RNase P (rnpA gene), expressed from pETC5 (protein, UniProt P0A7Y8 1-119, looked up)
Ribonuclease P protein …: MVKLAFPRELRLLTPSQFTFVFQQPQRAGTPQITILGRLNSLGHPRIGLTVAKKNVRRAHERNRIKRLTRESFRLRQHELPAMDFVVVAKKGVADLDNRALSEALEKLWRRHCRLARGS
As to B2, in test [1], the cleavage activity result is recorded as “Cleavage activity could not be confirmed”.

These data come from US20090023139A1, “Method For Site-Specifically Introducing Non-Natural Amino Acid Into Protien Using Mitochondrial Protein and Method For Effectively Preparing Trna” (priority 2004, published 2009).
